Measurements from patent US20210115113A1 (CITY OF HOPE, published 2021).

Assays:
[1] = target: murine 72A1 (m72A1), anti-EBV gp350 neutralizing antibody from hybridoma HB168; test: ELISA, mAb 10 µg/ml captured on soluble gp350, HRP secondary 1:2,000
humanized 72A1 (h72A1) = test: as above
[2] = target: EBV gp350 on EBV-eGFP virions (Epstein-Barr virus) (UniProt P03200); test: cell-based or functional assay
[3] = target: T1, EBV gp350 expressed on the surface of stably transfected CHO cells (Epstein-Barr virus, UniProt P03200 1-907); test: cross-competition on gp350-CHO cells (flow), unlabeled 500 µg/ml; competitor: biotinylated 54A1
T1 construct: also called native gp350; gp350 expressing CHO cells
T1 sequence: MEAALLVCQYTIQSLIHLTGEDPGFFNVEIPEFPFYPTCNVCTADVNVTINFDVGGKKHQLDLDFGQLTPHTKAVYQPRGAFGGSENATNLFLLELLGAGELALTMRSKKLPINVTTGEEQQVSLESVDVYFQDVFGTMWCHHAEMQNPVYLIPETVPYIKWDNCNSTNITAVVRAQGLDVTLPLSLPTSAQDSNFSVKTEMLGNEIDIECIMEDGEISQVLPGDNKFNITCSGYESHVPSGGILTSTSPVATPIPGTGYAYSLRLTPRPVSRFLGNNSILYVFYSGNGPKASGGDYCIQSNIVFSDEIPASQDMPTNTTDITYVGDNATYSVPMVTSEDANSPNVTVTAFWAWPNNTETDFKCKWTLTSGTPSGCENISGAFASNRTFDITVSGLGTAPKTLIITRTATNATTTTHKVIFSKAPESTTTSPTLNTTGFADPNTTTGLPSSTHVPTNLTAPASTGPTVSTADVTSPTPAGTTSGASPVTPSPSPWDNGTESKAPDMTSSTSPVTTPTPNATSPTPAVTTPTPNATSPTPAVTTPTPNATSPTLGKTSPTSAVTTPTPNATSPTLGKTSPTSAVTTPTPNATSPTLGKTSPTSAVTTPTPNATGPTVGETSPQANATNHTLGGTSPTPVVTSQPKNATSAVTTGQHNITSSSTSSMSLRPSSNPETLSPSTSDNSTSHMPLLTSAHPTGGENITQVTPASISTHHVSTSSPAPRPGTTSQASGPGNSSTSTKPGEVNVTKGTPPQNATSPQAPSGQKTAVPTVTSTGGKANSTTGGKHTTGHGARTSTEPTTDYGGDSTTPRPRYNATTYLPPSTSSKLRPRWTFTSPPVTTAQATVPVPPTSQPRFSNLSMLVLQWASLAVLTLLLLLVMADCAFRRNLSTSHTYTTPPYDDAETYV

[4] = target: T1, EBV gp350 expressed on the surface of …; test: cross-competition on gp350-CHO cells (flow), unlabeled 500 µg/ml; competitor: biotinylated h72A1
[5] = target: T1, EBV gp350 expressed on the surface of …; test: cross-competition on gp350-CHO cells (flow), unlabeled 500 µg/ml; competitor: biotinylated HB11
[6] = target: T1, EBV gp350 expressed on the surface of …; test: cross-competition on gp350-CHO cells (flow), unlabeled 500 µg/ml; competitor: biotinylated HB1
[7] = target: T1, EBV gp350 expressed on the surface of …; test: cross-competition on gp350-CHO cells (flow), unlabeled 500 µg/ml; competitor: biotinylated m72A1
[8] = target: T1, EBV gp350 expressed on the surface of …; test: cross-competition on gp350-CHO cells (flow), unlabeled 500 µg/ml; competitor: biotinylated HB17
[9] = target: T1, EBV gp350 expressed on the surface of …; test: cell competition (flow), unlabeled 67.5 µg/ml; competitor: biotinylated m72A1 1 µg/ml
[10] = target: T1, EBV gp350 expressed on the surface of …; test: cross-competition on gp350-CHO cells (flow), unlabeled 500 µg/ml; competitor: biotinylated HB20
[11] = target: T2, EBV gp350 on EBV-eGFP virions (Epstein-Barr virus, UniProt P03200 1-907); test: cell-based or functional assay
T2 sequence: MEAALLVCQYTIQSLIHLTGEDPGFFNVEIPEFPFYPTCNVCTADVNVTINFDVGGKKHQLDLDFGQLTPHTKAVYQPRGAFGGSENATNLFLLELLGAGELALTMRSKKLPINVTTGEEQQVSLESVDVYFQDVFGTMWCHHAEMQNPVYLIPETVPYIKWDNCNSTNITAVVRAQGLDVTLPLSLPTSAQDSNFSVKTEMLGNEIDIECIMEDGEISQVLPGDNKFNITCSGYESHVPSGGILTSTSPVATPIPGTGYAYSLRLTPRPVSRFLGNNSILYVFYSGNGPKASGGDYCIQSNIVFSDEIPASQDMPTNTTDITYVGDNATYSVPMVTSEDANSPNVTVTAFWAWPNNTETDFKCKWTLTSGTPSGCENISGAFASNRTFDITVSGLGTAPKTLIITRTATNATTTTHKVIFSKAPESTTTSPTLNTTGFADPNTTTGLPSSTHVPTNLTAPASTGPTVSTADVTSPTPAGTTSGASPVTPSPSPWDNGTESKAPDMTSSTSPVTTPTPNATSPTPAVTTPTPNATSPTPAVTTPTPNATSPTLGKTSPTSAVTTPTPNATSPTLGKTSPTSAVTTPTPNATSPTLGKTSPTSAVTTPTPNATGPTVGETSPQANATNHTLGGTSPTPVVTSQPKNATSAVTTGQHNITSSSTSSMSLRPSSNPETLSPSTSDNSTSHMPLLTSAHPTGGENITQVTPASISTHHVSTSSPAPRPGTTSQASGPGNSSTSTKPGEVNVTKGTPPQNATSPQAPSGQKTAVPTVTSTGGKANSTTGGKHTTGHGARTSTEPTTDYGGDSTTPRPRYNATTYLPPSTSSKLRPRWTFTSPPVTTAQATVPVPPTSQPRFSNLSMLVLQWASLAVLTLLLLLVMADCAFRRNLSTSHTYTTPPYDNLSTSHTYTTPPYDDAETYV

[12] = target: T1, EBV gp350 expressed on the surface of …; test: cell competition (flow), unlabeled 125 µg/ml; competitor: biotinylated m72A1 1 µg/ml
[13] = target: T1, EBV gp350 expressed on the surface of …; test: cell competition (flow), unlabeled 250 µg/ml; competitor: biotinylated m72A1 1 µg/ml
[14] = target: T1, EBV gp350 expressed on the surface of …; test: cross-competition on gp350-CHO cells (flow), unlabeled 500 µg/ml; competitor: biotinylated HB5
[15] = target: T1, EBV gp350 expressed on the surface of …; test: cell competition (flow), unlabeled 500 µg/ml; competitor: biotinylated m72A1 1 µg/ml

Sequence of murine 72A1 (m72A1), anti-EBV gp350 neutralizing antibody from hybridoma HB168 (VH, as listed by the source limits assumed, chain 1 of 2): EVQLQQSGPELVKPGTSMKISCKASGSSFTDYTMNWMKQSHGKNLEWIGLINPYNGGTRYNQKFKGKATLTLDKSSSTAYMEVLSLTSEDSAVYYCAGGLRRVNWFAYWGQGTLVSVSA
Sequence of murine 72A1 (m72A1), anti-EBV gp350 neutralizing antibody from hybridoma HB168 (VL, as listed by the source limits assumed, chain 2 of 2): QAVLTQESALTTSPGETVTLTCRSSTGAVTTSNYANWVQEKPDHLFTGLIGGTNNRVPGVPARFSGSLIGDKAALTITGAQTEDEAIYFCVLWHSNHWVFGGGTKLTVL
Sequence of humanized 72A1 (h72A1) (VH, as listed by the source limits assumed, chain 1 of 2): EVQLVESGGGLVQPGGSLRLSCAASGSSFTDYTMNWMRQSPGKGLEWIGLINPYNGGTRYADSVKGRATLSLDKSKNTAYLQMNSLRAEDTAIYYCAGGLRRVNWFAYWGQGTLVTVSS
Sequence of humanized 72A1 (h72A1) (VL, as listed by the source limits assumed, chain 2 of 2): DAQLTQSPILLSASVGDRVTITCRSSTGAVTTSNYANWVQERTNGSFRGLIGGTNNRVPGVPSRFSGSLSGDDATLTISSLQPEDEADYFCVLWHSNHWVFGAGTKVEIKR

## HRP-conjugated goat anti-mouse IgG (antibody)
[1]
  fold ELISA signal above the background (1× PBS): 28 fold
  fold ELISA signal as compared to goat anti-human IgG: 9 fold

## HRP-conjugated goat anti-human IgG (antibody)
Humanized 72A1 (h72A1)
  fold ELISA signal over the background: 2100 fold

## murine 72A1 (m72A1), anti-EBV gp350 neutralizing antibody from hybridoma HB168
[2]
  % blocking of EBV-eGFP infection of Raji cells at 12.5 µg/ml: 93%
  % neutralization of EBV-eGFP infection of Raji cells, 12.5-100 µg/ml: 35 to 80%

B1: HB20 (antibody, V domains shown)
VH: ELVKPGASVKLSCKASGYTFTSYWIQWVKQRPGQGLEWIGEINPTNGHTNYNEKFKTKATLTVDKSSSTAYMRLSSLTSEDSAVYYCARNLYYYGRPDYWGQGTSVTVSS
VL: SSLSASLGDRVTISCRASQDIGNYLNWYQQKPDGTVKLLIYYTSRLHSGVPSRFSGSGSGTDYSLTISNLEQEDIATYFCQQGNALPPTFGGGTKLEIKR
[3]
  % inhibition of biotinylated nAbs: 0%
[4]
  % inhibition of biotinylated nAbs: 96%
[5]
  % inhibition of biotinylated nAbs: 89%
[6]
  % inhibition of biotinylated nAbs: 88%
[7]
  % inhibition of biotinylated nAbs: 98%
[8]
  % inhibition of biotinylated nAbs: 13%
[9]
  % inhibition of biotinylated nAbs: 89%
[10]
  % inhibition of biotinylated nAbs: 59%
[11]
  % neutralization of EBV-eGFP infection of Raji cells at 100 µg/ml: 90%
[12]
  % inhibition of biotinylated nAbs: 87%
[13]
  % inhibition of biotinylated nAbs: 91%
[14]
  % inhibition of biotinylated nAbs: 97%
[15]
  % inhibition of biotinylated nAbs: 96%
